The text below walks through data of paper doi:10.1101/2020.11.22.393603 (bioRxiv, 2020).

Test [1] concerns the target T1, full-length recombinant GLK1 (Arabidopsis thaliana, UniProt Q9SIV3 1-420).
T1 sequence (looked up): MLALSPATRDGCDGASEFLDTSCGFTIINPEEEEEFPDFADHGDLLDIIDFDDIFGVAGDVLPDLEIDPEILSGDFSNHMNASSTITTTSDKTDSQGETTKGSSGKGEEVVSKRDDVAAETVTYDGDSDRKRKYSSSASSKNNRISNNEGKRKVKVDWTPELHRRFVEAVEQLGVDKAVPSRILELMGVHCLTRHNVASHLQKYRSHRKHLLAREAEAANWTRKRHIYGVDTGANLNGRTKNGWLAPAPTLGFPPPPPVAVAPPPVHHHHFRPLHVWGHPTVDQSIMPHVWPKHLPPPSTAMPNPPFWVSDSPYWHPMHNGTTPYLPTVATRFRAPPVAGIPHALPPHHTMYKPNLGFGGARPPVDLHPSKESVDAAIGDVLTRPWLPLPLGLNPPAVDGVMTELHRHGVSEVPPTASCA
The test can be described thus: SEC. Background: In gel filtration, larger molecules generally elute earlier.

The target in test [2] is T2, full-length recombinant GLK2 (Arabidopsis thaliana, UniProt Q9FFH0 1-386).
T2 sequence (looked up): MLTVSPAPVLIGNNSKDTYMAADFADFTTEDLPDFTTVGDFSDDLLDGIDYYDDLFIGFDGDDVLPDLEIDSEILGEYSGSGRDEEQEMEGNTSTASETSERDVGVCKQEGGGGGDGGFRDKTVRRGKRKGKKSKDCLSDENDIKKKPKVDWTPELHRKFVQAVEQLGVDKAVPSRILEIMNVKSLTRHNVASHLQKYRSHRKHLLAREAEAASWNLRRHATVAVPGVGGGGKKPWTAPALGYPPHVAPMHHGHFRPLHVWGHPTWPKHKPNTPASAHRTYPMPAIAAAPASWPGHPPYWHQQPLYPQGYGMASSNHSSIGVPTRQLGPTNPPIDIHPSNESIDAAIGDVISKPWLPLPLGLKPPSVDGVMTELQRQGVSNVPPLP
The test can be described thus: SEC.

B1: full-length recombinant LSD1 (natural protein, Arabidopsis thaliana, UniProt P94077 1-189, looked up)
chain: MKVADMQDQLVCHGCRNLLMYPRGASNVRCALCNTINMVPPPPPPHDMAHIICGGCRTMLMYTRGASSVRCSCCQTTNLVPAHSNQVAHAPSSQVAQINCGHCRTTLMYPYGASSVKCAVCQFVTNVNMSNGRVPLPTNRPNGTACPPSTSTSTPPSQTQTVVVENPMSVDESGKLVSNVVVGVTTDKK
B1: the binding result in test [1] and in test [2] was “binds” throughout.
